# Laboratory results published in patent US20160263155A1, “T CELL RECEPTORS DIRECTED AGAINST THE PREFERENTIALLY EXPRESSED ANTIGEN OF MELANOMA AND USES THEREOF” (LEIDEN UNIVERSITY MEDICAL CENTER, priority 2015, published 2016).
# T1: PRAME peptide on HLA-A*02:01 (human)
# T1 peptide: SLLQHLIGL
# B1: AAV46 SLL (TCR, V domains shown)
# Valpha: GQQLNQSPQSMFIQEGEDVSMNCTSSSIFNTWLWYKQDPGEGPVLLIALYKAGELTSNGRLTAQFGITRKDSFLNISASIPSDVGIYFCAGIPRDNYGQNFVFGPGTRLSVLP
# Vbeta: DVKVTQSSRYLVKRTGEKVFLECVQDMDHENMFWYRQDPGLGLRLIYFSYDVKMKEKGDIPEGYSVSREKKERFSLILESASTNQTSMYLCASTPWLAGGNEQFFGPGTRLTVL
# B2: AAV54 SLL (TCR, V domains shown)
# Valpha: AQSVTQLGSHVSVSERALVLLRCNYSSSVPPYLFWYVQYPNQGLQLLLKYTSAATLVKGINGFEAEFKKSETSFHLTKPSAHMSDAAEYFCAVSGQTGANNLFFGTGTRLTVIP
# Vbeta: DSGVTQTPKHLITATGQRVTLRCSPRSGDLSVYWYQQSLDQGLQFLIQYYNGEERAKGNILERFSAQQFPDLHSELNLSSLELGDSALYFCASARWDRGGEQYFGPGTRLTVT
# Molecular target: T1, PRAME peptide on HLA-A*02:01
# Test: multimer staining
row,Binder,binding result
1,B1,recognises
2,B2,recognises
